Laboratory results reported in patent publication US20030172404A1, “Method of modifying plant characters by the targeted expression of a cell cycle control protein” (priority 1999, published 2003).

Assays:
[1] = system: dexamethasone-inducible Cdc25 gene; experiment: Induction of Cdc25 mRNA and protein (northern and western blot); assay type: cell-based, N. plumbaginifolia; conditions: inducible cell lines; 12 h induction
Method: FIG. 1a is a copy of a photographic representation of a northern blot hybridisation showing the induction of Cdc25 mRNA in tobacco cells containing a dexamethasone-inducible Cdc25 gene, in the absence of exogenous cytokinin. […] Total RNA was extracted from tobacco cells either in the absence of added dexamethasone (lane 0), or after 12 h induction with […], or 0.10 μM, or 1.00 μM, or 10.00 μM dexamethasone and then loaded onto agarose gels (60 μg aliquots RNA per lane), transferred to membrane support and probed with a Cdc25-specific probe.
FIG. 1b is a copy of a photographic representation of a western blot showing the induction of p67^Cdc25 protein in tobacco cells containing a dexamethasone-inducible Cdc25 gene, in the absence of exogenous cytokinin. […] Total protein was extracted from tobacco cells either in the absence of added dexamethasone (lane 1), or after 12 h induction with 0.01 μM dexamethasone (Lane 2), or 0.10 μM dexamethasone (Lane 3), or 1.00 μM dexamethasone (Lane 4), or 10.00 µM dexamethasone (Lane 5) and then loaded onto SDS/polyacrylamide gels ([…] aliquots total soluble p67^cdc25 protein per lane), transferred to membrane support and probed with antibody specific for the Cdc25-specific probe. p67^Cdc25 was detected by western blot of 50 μg aliquots of total soluble p67^Cdc25 protein. […]

[2] = system: tobacco cells containing a dexamethasone-inducible Cdc25 gene; conditions: auxin only
[3] = system: tobacco Cdc2 protein, designated Cdc2a
[4] = target: tyrosine phosphorylated Cdc2 from arrested Cdc25-22 mutant fission yeast, P04551
[5] = target: tobacco Cdc2 protein, designated Cdc2a; remark: listed apart in the source
plant Cdc2 enzyme = experiment: In vitro activation of plant Cdc2 histone kinase by GST-Cdc25; assay type: biochemical, tobacco
From the text: FIG. 2e is a graphical representation showing the change in activity of Cdc2 histone kinase in transgenic tobacco cells containing a dexamethasone-inducible Cdc25 gene, progressing from the late G2 phase hormonal control point into division and following their stimulation with cytokinin. The Cdc2 histone kinase was purified using p13^suc1 beads and treated with GST-Cdc25 fusion protein that had been produced in Escherichia coli cells.
Both Cdc2 and Cdc25 enzyme activities were extracted from tobacco cells, by grinding the cells in liquid nitrogen. For Cdc2 extraction, NDE buffer containing 25 mM HEPES (pH 7.2) with protease and phosphatase inhibitors was used. For Cdc25 extraction, PDE buffer, containing 25 mM MOPS (pH 7.2), 100 mM NaCl, 10 mM DTT, 5 mM EDTA, 1mM EGTA, 1% NP-40, 50 mM NaF, 0.5 mM PMSF, 3 μg ml^−1 leupeptin, and 20 μg ml^−1 aprotinin, was used.
To measure Cdc2 activity, the phosphorylation of H1 histone was followed.
We tested this by investigating whether Cdc25 enzyme could activate Cdc2 from cells in prophase and whether the extent of activation by Cdc25 declined when activation had already occurred in vivo. […] After 12 hours, Cdc2 activity declined during anaphase and the enzyme then became unresponsive to GST-Cdc25, consistent with the anaphase decline in activity being due to proteolysis of cyclin, as observed for cyclin 1b in maize mitosis.

tyrosine phosphorylated Cdc2 from arrested Cdc25-22 mutant fission yeast, P04551, sequence (P04551 whole entry, looked up, change not shown, tested part not stated): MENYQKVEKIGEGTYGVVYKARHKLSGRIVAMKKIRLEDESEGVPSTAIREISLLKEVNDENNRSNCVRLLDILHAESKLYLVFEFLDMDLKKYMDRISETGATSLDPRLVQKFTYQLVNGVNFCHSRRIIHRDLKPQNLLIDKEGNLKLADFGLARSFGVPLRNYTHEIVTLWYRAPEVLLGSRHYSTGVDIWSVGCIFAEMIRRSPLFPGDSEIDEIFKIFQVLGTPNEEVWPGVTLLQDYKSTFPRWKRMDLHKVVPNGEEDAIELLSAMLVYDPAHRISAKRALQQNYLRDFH

`C[C@@H]1C[C@H]2[C@@H]3CCC4=CC(=O)C=C[C@]4(C)[C@@]3(F)[C@@H](O)C[C@]2(C)[C@@]1(O)C(=O)CO` [dexamethasone] was tested, and the “concentration at which Cdc25 mRNA and protein accumulated” value [1] was 0.01 to 10 µM, the “dexamethasone concentration that induced division” value ([2]; cells arrested at G2 phase hormonal control point, no cytokinin, 12 h induction) was 0.01 to 10 µM and the “optimum concentration for induction of division” value ([2]; independent clones, G2-arrested cells) was 0.1 µM.

“plant Cdc25 protein (67 kDa tobacco protein)” was tested, and the “Cdc2 histone kinase activity after incubation with immunoprecipitated Cdc25” value [3] was “non-transgenic plant cells also contain a Cdc25 activity, unambiguously of plant origin, that is both present following cytokinin stimulation and capable of activating plant Cdc2”.

B1: fission yeast Cdc25 phosphoprotein phosphatase expressed in transgenic tobacco cells (protein)
chain: MDSPLSSLSFTNTLSGKRNVLRPAARELKLMSDRNANQELDFFFPKSKHIASTLVDPFGKTCSTASPASSLAADMSMNMHIDESPALPTPRRTLFRSLSCTVETPLANKTIVSPLPESPSNDALTESYFFRQPASKYSITQDSPRVSSTIAYSFKPKASIALNTTKSEATRSSLSSSSFDSYLRPNVSRSRSSGNAPPFLRSRSSSSYSINKKKGTSGGQATRHLTYALSRTCSQSSNTTSLLESCLTDDTDDFELMSDHEDTFTMGKVADLPESSVELVEDAASIQRPNSDFGACNDNSLDDLFQASPIKPIDMLPKINKDIAFPSLKVRSPSPMAFAMQEDAEYDEQDTPVLRRTQSMFLNSTRLGLFKSQDLVCVTPKQSTKESERFISSHVEDLSLPCFAVKEDSLKRITQETLLGLLDGKFKDIFDKCIIIDCRFEYEYLGGHISTAVNLNTKQAIVDAFLSKPLTHRVALVFHCEHSAHRAPHLALHFRNTDRRMNSHRYPFLYYPEVYILHGGYKSFYENHKNRCDPINYVPMNDASHVMTCTKAMNNFKRNATFMRTKSYTFGQSVLASPDVNDSPTAMHSLSTLRRF
In the case of B1, the “activation of yeast Cdc2 H1 histone kinase (phosphorylation of H1 histone)” value [4] is reported as “appearance of Cdc25 activity, which was detected by its activation of yeast Cdc2 Hi histone kinase”.

B2: GST-Cdc25 catalytic core fusion protein synthesised in Escherichia coli (protein)
chain: SSHVEDLSLPCFAVKEDSLKRITQETLLGLLDGKFKDIFDKCIIIDCRFEYEYLGGHISTAVNLNTKQAIVDAFLSKPLTHRVALVFHCEHSAHRAPHLALHFRNTDRRMNSHRYPFLYYPEVYILHGGYKSFYENHKNRCDPINYVPMNDASHVMTCTKAMNNFKRNATFMRTKSYTFGQSVLASPDVNDSPTAMHSLSTLRRF
In the case of B2, the “Cdc2 histone kinase activity after treatment with GST-Cdc25” value [5] is reported as “excess bacterially-synthesised GST-Cdc25 could activate plant Cdc2 enzyme that was extracted in prophase between 3 hours and 12 hours”.

B3: GST-Cdc25: recombinant GST-Cdc25 catalytic core fusion protein synthesised in Escherichia coli (protein)
chain: SSHVEDLSLPCFAVKEDSLKRITQETLLGLLDGKFKDIFDKCIIIDCRFEYEYLGGHISTAVNLNTKQAIVDAFLSKPLTHRVALVFHCEHSAHRAPHLALHFRNTDRRMNSHRYPFLYYPEVYILHGGYKSFYENHKNRCDPINYVPMNDASHVMTCTKAMNNFKRNATFMRTKSYTFGQSVLASPDVNDSPTAMHSLSTLRRF
modifications: left off: a dimerising Fc or GST
notes: recombinant GST-Cdc25 catalytic core fusion protein synthesised in Escherichia coli
In the case of B3, the “response of Cdc2 to GST-Cdc25 in anaphase” value (plant Cdc2 enzyme; Cdc2 extracted after 12 hours) is reported as “unresponsive” and the “activation of plant Cdc2 enzyme” value (plant Cdc2 enzyme; excess bacterially-synthesised GST-Cdc25, Cdc2 extracted in prophase between 3 hours and 12 hours) is reported as “could activate plant Cdc2 enzyme”.
